In a protein production outcome set (Wang et al. 2014) one finds protein production data, which are given here for 14 sequences.

The nature of this series: label from the status in PepcDB records.
For the sequence “MTQHYLRSAAYRDFSIHSIYGMSDDDIHAMFARLRWSSDSHQACPACGAWAQHYRRPARQQWRCKECGRDFSVTSATAFSSRKKSLRSILLATFYYVTGVKGLAGLGLSRMGDYSNKAAHVALGKLREAIFRTQDFTPLTGVVEIDGGYFGGKPRKPNRRGLRNDQAIVDRIAGRPAKRPWHASGMTRTNWEKRKNKRVVMIFRQQGRPGEGAVRSIAAVARSENDKDAAKLIARYVSSEAIIMTDESPAYATVSATHTHYAVRHSHEYVSAEGVNENQAESFFSRLRRWEYGVSHGVRPAYLADYANEMAWREDVRRFSIRTQVEMLLIKALTVGHSRWWRGYYQGKRRGTEILMNQGIPPSSASGASAQ”, the protein production entry was “failed”.
Turning to “MTQKEISIIHPRPSSIVAALYTLRDLNVDVAILHGPPGCSFKHARLLEEDGIHVVTTGLDENGFVFGGHDKLVQVINKSIELFNPKILGVVGTCASMIIGEEMHEAVLEANPDIPVIEVEVHAGYHNNTKGVIFALESALDAGIIDHKEFERQEYLEHHHHHH”, the protein production entry is listed as “not failed”.
As for “MTQLFPGPIVRTPGLAELDARARDIFRRVVESYLETGEPVGSRTISKGGVALSPASIRNTMQDLAQLGLLDAPHTSAGRMPTHAGLRMFVDGFLEVGDVAEQEKRAIEARLAVKGRSFEEALAEASSILSGLAGGAGIVVTPVREGGVKHVEFVPLGGGQVLAVMVFEDGQVENRLMRQAPGVTPSALQEASNFLNARLRGRTLTEARTEMGGELDAARRQLNETAARLVEDGLAAWSGGEGDARSLIVRGQANLLADARAREDIDRVRQLFDDLSRRAQLIGLLDDVRDAEGVRIYIGAETRLFSLSGSSVIAAPYMTGRQKVLGAIGVIGPARLNYARVIPLVDYTARVLGRMMDG”, the entry is “failed”; as for “MTQLIKSLPGWLKLMLIFPIFFLNGVLLSLIINRFRELFDYIIIATLVTFLLKLTINFLVSKGIGKRLAIFAVITISFALIALGGITLIPLMGNQLGNLSQDIPRWLSGSQEHLANLKNSTLFLTLDNAGVNVDDLFQKAYLTLSKELDRIGQISLKVLTETIGGVVDTLVILVLTIFLLVGGDTFWQGILSWLPSPWEKKIPQYAGEIFRDYFISRLILAAGSSMARLVVFMALGIPYSILFAFSLGLASLIPFAGAVVTLIGTLVLLLKGWVVAVKFFVSAIVIDQITDNGVAPKLMGDKIGLNPVWILISIFIGAEIAGLLGVLLAVPIASVIKKVIDDMRAGKTENEEIDTEEQVEVLPESLA”, “failed”; as for “MTQNNILLISGAILPVIITVIIGYISGKRKDFNWQQAGDINKIVMLYALPLSIFSNMVMTPRHIVMTMGPVAVAIILALILSFVIPLLVARYLFRRDLALSTLQALAIGSPAVPFIGTSVLAFLFGTVSASLITVSSITQNVFQLPLVMILMSVATGDKSQHISFGARVVNAIKQPVVWSPVIALIIVLADIHIPQTISMSLGLLGKASGGLALFAAGIVLYTRSIVITTATIITVIARNILVPGACYLILLKMGFSMEQIKEVVLTMAIPVGSIAIIIAMQYKTGEQEMASTMALSIIASIITMGGFIFLTF”, “failed”.
Next, “MTQQLNHAKVNQHPGQATLPETAEGQVRTYEVKTYGCQMNVHDSERLSGLLEEAGYVAAPEDTTPDLVVFNTCAVRENADMRLYGTLGNLRSVKEKNPGMQIAVGGCLAQKDKDTVVKKAPWVDVVFGTHNIGSLPTLLQRAEHNAQAEVEIVDSLEQFPSVLSAKRESAYAGWVSVSVGCNNTCTFCIVPSLRGKEQDRRPGDILAEVQALVDQGVTEVTLLGQNVNAYGVNFVDPELERDRSAFSKLLRACGEIEGLERVRFTSPHPAEFTSDVIDAMAETPNICPQLHMPLQSGSDKVLKEMRRSYRSKKFLSILDEVRAKIPHASITTDIIVGFPGETEEDFQATLDVVKKARFTSAYTFQYSPRPGTPAAEYENQLPKEVVQERYERLMVVQEQVCEEENQKLIGTTVELLVQAGGGRKNDATKRMSGRARDGRLVHFAPEGDIDGEIRPGDFVTVTVTEAKPFFLIADSGVQTHRRTKAGDNSAVGQVPTTAPIGVGLGLPQIGAPKVAPATESACCSIN”: “failed”; “MTQRSLADIQFQTTLEGVTPAQLGGFFEGWPNPPTPETLWRILDRAAVFVLARTPDGQVIGFVNALSDGILAASIPLLEVQAGWRSLGLGSELMRRVLTELGDLYMVDLSCDDDVVPFYERLGLKRANAMFLRRYDNQAGIPAE”: “not failed”; “MTQRTAFTLTVSPKIPARLSRLEELSNNLWYSWDRATRALFSRLDQQLWEAVGHSPKAFLRRVDESLLLQAAEDLTFLSHYNSVLSAYDSYHSEPSRYQAINGIEARDQVAYFCFEFGFHESLPVYSGGLGILAGDHCKAASDLCLPFVAVGLLYRQGYFFQTIDGQGNQQPVFCDSDFEDLPVKPALHDDGSEVRISVRFPGRVVTVKVWRAQIGHVGLYLLDTDLPDNSEYDRLITHQLYGGNKTMRIEQEIILGVGGVAALRAMGIKPTIWHSNEGHAAFMMLTRALELVRQGLDFASATEAVAVNTIFTTHTAVPAGHDHFPEDMMHRYFEDFYHELKISREEFMALGHTPGNHDFNMTALAIRMSRMHNGVSRIHRDVSANICHDMWPQIEPEENPIDYVTNGVHVPTFLAQEWTDLFDRRLGSQWRSKQHAPEFWSRIHDIPDHIFWSVRQSLKSQMFYGIRARLTEQNLRNHGSEAHLERLLRFVDPINPNILTLGFARRFATYKRATLLFQDLDWLRKLLLDAARPILLIFAGKAHPADLPGQALIRHIHQVADMPEFRGRILLVEGYDLRLARRLVSGVDVWLNNPIYPLEASGTSGMKAGINGTLNLSILDGWWGEGYDGKNGWGIKPVSENMEDSLRDAEESRAFYEILQDQVIPLYYDHSKFGYSADWVRMAKNSMVSLLPRYGTGRMVGEYVQKFYAPASRQGTGYSQDNFAIARSIAAWKARINAAWDGVSVRRLDTPGKQLEFGSTMHFKLAVKLNGLQPEDVVVELLLSRQYNKTRLSQFKHFRLECTGPLGSHEHQFELNHVPELCGRQQYYLRIYPYHPLLTHPLEMGKMVWLLEHHHHHH”: “failed”.
As for “MTQSPYWQRIAAKAQAAQRPFFSLAPMEAVTGSVFRRVVMRAAAPDVFYTEFTNALSITHPKAKFTTRGRLYVDEAESPRPIVQLWGNSGEDFTKAAHEVKNQGYQAIDLNMGCPDMAVIKNHSGSDLIRHFDRAKEVIEGARQAELPVSVKTRLGFDDVHEYETWIPFLLQQQVPVLTVHVRTKMEMSKVPAHYELIDNLVQMRDTLAPATLLQINGDILDYQAGLKLAKAHPGVDGIMIGRGIFQNPYAFEPIPQPHSTRDMLELLRYQVDLYDQFIGLGLQGHFAPLQRFFKIYVRGMRHAAELRNELMQTKTTDDVRAIIDRLEAKLPAD”, the entry is “failed”; as for “MTRAPPRRCTSPMTPTAPSPLVWRDDGLPQSSLYGDVYFSSVDGLAETRAVFLAGCGLPERFAERRDFVVGELGFGSGLNIAALLDLWRREKPPGGRLHIFSIEAHPLSRDEAARILAHWPELGEAAQVLLDHWPGRARGFHRVDLPGFDAVLDLAVMDVVEALEAWDGLADAWFLDGFSPALNPAMWRDEVLAAVGARSAPGARAATFTVAGAVRRGLSAAGFEIAKRPGFGRKRERLEAWRPGVRPVAQRPETLAIIGGGIAGAALARAARAAGLEVTVIDDADAVAASGNPAALVTPALDAGGGPRAALYAQALSRAVTLYEAQPDAVLAREVLQLAAGERDPARFATVADQDLFEPGDMRTLEAEDTRARLETPTPALAMAGARVIAPAEVTAAWAGPVVRRRVAKAERDGEGWRLLDAAGEIIARADRLALAGGAAGADLLAEAPLRPVRGQASWTRGHGAPATAFGGYAIPTREGLLFGATHDRDDTQTNVRSEDHARNLATLAKGLPALAARLAGSTFEGRAAIRATTPDRLPLADLREDGVIVLTGLGSRGFCLAPLLAEHLVARLLDVPSPLPRQLSHLLKLTRFDSPVTRSRL”, “failed”.
As for “MTRASLDKQPHEVASMFDDVAERYDLTNDLLSLGQDRVWRREVAKAVDARPAQKILDLAAGTATSSLPFARAGAYVVPCDFSLGMLRVGKKNHPWLPLTAGDATKLPFKDDTFDAVTISFGLRNVQDTDTALSELYRVTKPGGRVVICEFSHPTWAPFRTVYTEYLMRALPPVARAVSSNPDAYVYLAESIRAWPTQPELAERLRKAGWSKVAWRNLTGGVVALHRGFKAV”, the protein production entry is “failed”.
Next, “MTREMARLLISPSNAWPRLRQDYDHHPFAFLVPLLLLPLLPAACLFIGTTQVGWSLPGNDSVQHLSSGSALLLATMCYLGFVAGVVIMGLFVRWVLFRTPSRPSVPGSLTFTTAIAVPLMLAGIVALVPWRILLLLAAAAACAYSVRLLFTGLPLFMRMQERQTLFYAFCILGVGFLTLLTTAFIFIELWGQSLAGSGEYLR”: “failed”; “MTRFWTRLIVVLTVILGVNYVAWRWMASLNWEAWWIAVPLVIAETYSLIDVMLFGLTVWNIKFRKPPPPPPADATVDVFITTYNEPLDLVMTTALAAKEIRWPHSTWILDDGDRPEMRELAESNGIGYVTRGADWTPDMPRHAKAGNLNNALMLTSGEYLLILDADQIPEPDILDKTLGYFNDDKVALVQTPQYFINVPADDPLGSQAPLFYGPIQQGKDGWNAAFFCGSNAILRREALMQLGLVGYVKATEKSVRRALAASRTAIRKARRSPEAENPLVEQMLNEVEAATESAQKELEAGASLSEITYRVRRQVDDAVRTLVAADFSALQSDLEEIAAMELAHVGESGVTTVATDAVDRMSGRDWSPLGALESVHAVLDAISVERTDEAQPIMPLATISVTEDMATAMRLHGLGWKSVYHHEILANGLAPEDVKTMLTQRLRWAQGTMQVLLRENPLVQRRLTWGQRLMYFSTMWTYLSGFAAVVYFAAPIIYLTLGILPVNSISSDFFIRFIPFMVVNQLLFLVAGHGIPTWRGQQYSLALFPTWIKACTTAARNVWFGRPLGFAVTPKARQSGGPSWSLIRPQIIVAVLLAVALIVGLIRLLAGMSEPLGTLVNVAWVAFDLVVLSVLVKAVLYKGFVPEVVGPERPEERNADAV”: “failed”; “MTRLRGTLSVCIDAFPAWTRPLALAFVVYALSFGMRMLEYPAWQNPEYMLDGEYLLATHDAYHWIAGAEGFEFGAGHPMSELVRLAAAFTGTTPAAVGFWLPPVMASLVAVGVFGWAAALGGVEAGVCAGVLASLAPGFLARTLLGYCDTDLVTLLFPLLMGLGPAFWMARFMFTPLQVARRLLARRTGTSDVVPDAVAVMMTSRGEADDDWHGGALSPRWLALLAGSGLVGSWGAEWHSLFPYLIRYDVVLLFGCICVFGRPGMRRALLVGGLAYALPMLVGAWGLLFALALGWGLHRADARFMAFVRGRALPVAGWCAVAVLLFDPDVFRMFLNSIAGYVKRSGDPSPGAGGDDPLVYPSVAQSIIEVQDLSLSEVLSYFHPWLWVALAGLGGFVPLLLARPAAFFLLPLGVLSFLSVKLGGRMVMFGAPVLALGFALPMVWGVQRVLRHDLRTGWVRLALSAVLLVIVATPFVDLLPAMTQGPIINKRHAEALRHIRTATPEDSMVWIWWDWGYSAHHFAHRRTIADGASHGGPSLYVPAAVFSTANPRFAWQLIRYTAERGGIPGSVFEGMGGAQAQELVHRLGIEKMTFADAPRQYLVVSYDMLRLGFWITNFGTWDFLSREGKGYAISSIPQQLSYSLDTGEVQVQGNTTGVLASTIDVFDEGQLERRDYIVRQGGSGNAIADYAARQRNIESRRNIHFLFNKVTGEKLVLDDRLYNTVMVQLLLCSPDDTRFAPYFKLIYDNVYARVYEVR”: “failed”.
